In patent US20140228277A1 (Genentech, published 2014):
Starred links: 1 amine or outer side, 2 acyl side, 3 side chain; linkers in the order of their positions; H or OH if unused. Positions of bridges follow the written chain, without caps; N, C: chain ends. NH(CH2)3(OCH2CH2)2O(CH2)3NH = C(CN[*:1])COCCOCCOCCCN[*:2]

Key:
Assay in all cases: ELISA; biotinylated BACE020 on plate-coated BACE1 ECD mutant; ratio to WT
[1] = target: T1, human BACE1 ECD (22-457) Y132A, His8 (human, UniProt P56817 22-457)
T1 construct: also called Y132A (71)
Protocol: (§1) Maxisorp microtiter plates (Nalge Nunc International, Rochester, N.Y.) were coated overnight at 4° C. with 2 μg/ml BACE1 mutant in 50 mM carbonate, pH 9.6. The coated wells were washed with buffer (PBS, 0.05% Polysorbate 20) and blocked with assay buffer (PBS, pH 7.4, 0.5% BSA, 0.05% Tween 20, 15 ppm Proclin) for 1 h at room temperature with gentle shaking. […] After washing, the amount of peptide bound to the plate was detected by the addition of Streptavidin-Horseradish Peroxidase Conjugate (GE Healthcare, Piscataway, N.J.) followed by the addition of TMB/H₂O₂ substrate (KPL, Gaithersburg, Md.). The reaction was quenched with 1 M phosphoric acid and the A₄₅₀ measured on a Molecular Devices SpectraMax Plus384 microplate reader. Concentrations to give half maximal effective concentration (EC₅₀) were determined using a 4-parameter non-linear regression curve-fitting program with Kaleidagraph (Synergy Software, Reading, Pa.). […] Concentrations to give half maximal inhibition concentration (IC₅₀) were determined using a 4-parameter non-linear regression curve-fitting program with Kaleidagraph.
(§2) The fold decrease in binding affinity was determined as the relative EC₅₀ values of EC₅₀ (mut)/EC₅₀ (WT), which are listed in Table 3.

[2] = target: T2, human BACE1 ECD (22-457) F169A, His8 (human, UniProt P56817 22-457)
T2 construct: also called F169A (108)
Protocol: as §1, §2

[3] = target: T3, human BACE1 ECD (22-457) T292A, His8 (human, UniProt P56817 22-457)
T3 construct: also called T292A (231)
Protocol: as §1, §2

[4] = target: T4, human BACE1 ECD (22-457) D289A, His8 (human, UniProt P56817 22-457)
T4 construct: also called D289A (228)
Protocol: as §1, §2

[5] = target: T5, human BACE1 ECD (22-457) K382A, His8 (human, UniProt P56817 22-457)
T5 construct: also called K382A (321)
Protocol: as §1, §2

[6] = target: T6, human BACE1 ECD (22-457) W176A, His8 (human, UniProt P56817 22-457)
T6 construct: also called W176A (115)
Protocol: as §1, §2

[7] = target: T7, human BACE1 ECD (22-457) Q73A, His8 (human, UniProt P56817 22-457)
T7 construct: also called Q73A (12)
Protocol: as §1, §2

T4 sequence (P56817 other isoform, or with tags, fused parts or gaps D289A D289A): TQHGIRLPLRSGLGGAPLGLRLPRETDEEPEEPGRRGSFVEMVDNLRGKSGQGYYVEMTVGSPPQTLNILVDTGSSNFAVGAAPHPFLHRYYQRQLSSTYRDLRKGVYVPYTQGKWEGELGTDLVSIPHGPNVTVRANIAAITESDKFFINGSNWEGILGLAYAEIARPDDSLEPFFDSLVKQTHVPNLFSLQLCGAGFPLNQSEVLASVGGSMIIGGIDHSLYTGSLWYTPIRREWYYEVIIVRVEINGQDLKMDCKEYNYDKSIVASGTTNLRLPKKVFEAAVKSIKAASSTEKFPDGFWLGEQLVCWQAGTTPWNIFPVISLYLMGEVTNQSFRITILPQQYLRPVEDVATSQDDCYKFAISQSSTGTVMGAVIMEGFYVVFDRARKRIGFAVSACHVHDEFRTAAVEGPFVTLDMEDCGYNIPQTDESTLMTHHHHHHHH
T6 sequence (P56817 other isoform, or with tags, fused parts or gaps W176A W176A): as the sequence (P56817 other isoform, or with tags, fused parts or gaps D289A D289A) above, with W155A, A268D counted along it
T3 sequence (P56817 other isoform, or with tags, fused parts or gaps T292A T292A): as the sequence (P56817 other isoform, or with tags, fused parts or gaps D289A D289A) above, with A268D, T271A counted along it
T7 sequence (P56817 other isoform, or with tags, fused parts or gaps Q73A Q73A): as the sequence (P56817 other isoform, or with tags, fused parts or gaps D289A D289A) above, with Q52A, A268D counted along it
T2 sequence (P56817 other isoform, or with tags, fused parts or gaps F169A F169A): as the sequence (P56817 other isoform, or with tags, fused parts or gaps D289A D289A) above, with F148A, A268D counted along it
T5 sequence (P56817 other isoform, or with tags, fused parts or gaps K382A K382A): as the sequence (P56817 other isoform, or with tags, fused parts or gaps D289A D289A) above, with A268D, K361A counted along it
T1 sequence (P56817 other isoform, or with tags, fused parts or gaps Y132A Y132A): as the sequence (P56817 other isoform, or with tags, fused parts or gaps D289A D289A) above, with Y111A, A268D counted along it

Fold Decrease in Binding EC50 (Mut)/EC50 (WT) [1]: 72.2 fold
Fold Decrease in Binding EC50 (Mut)/EC50 (WT) [2]: 1.9 fold
Fold Decrease in Binding EC50 (Mut)/EC50 (WT) [3]: 73.6 fold
Fold Decrease in Binding EC50 (Mut)/EC50 (WT) [4]: 2210 fold
Fold Decrease in Binding EC50 (Mut)/EC50 (WT) [5]: 4.5 fold
Fold Decrease in Binding EC50 (Mut)/EC50 (WT) [6]: 690 fold
Fold Decrease in Binding EC50 (Mut)/EC50 (WT) [7]: 1.7 fold
B1: biotinylated BACE020 (Ac-NEESMYCRLLGIGCG-(PEG)3-biotin) (peptide)
peptide: Ac-NEESMYCRLLGIGCG-{NH(CH2)3(OCH2CH2)2O(CH2)3NH-biotin}
modifications: disulfide 7-14
notes: also called C-terminal biotin tagged BACE020 peptide
